Measured values: the supplement of paper PMC12636428

Test system: Saccharomyces cerevisiae
Experiment: transcriptional activation domain activity (GFP:mCherry ratio, weighted mean of sorted bins, harmonized to initial dataset scale) (arbitrary fluorescence ratio units); higher = stronger transcriptional activation
Conditions: beta-estradiol 1 µM; induction time 4 h
Protocol: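 53-aa protein tiles (fungal proteins plus yeast TF control tiles) fused C-terminally to a DBD-estrogen-binding domain-mCherry synthetic TF, integrated in S. cerevisiae (URA3 locus) with a GFP reporter. Cells were induced with 1 uM beta-estradiol for 4 h at 30 C, FACS-sorted into 8 bins by GFP:mCherry ratio and barcodes sequenced. Activity is the read-weighted mean bin fluorescence (GFP:mCherry), averaged over barcodes (median 12); tiles under 50 reads were discarded. New active-learning values were harmonized by linear fit onto the scale of the initial (Hummel et al.) dataset. The assay saturates at low and high signal.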

Sequence	transcriptional activation domain activity
ASSSAPAAEPEAAAEEAPKKEEAAPAKEEPAAATTATAAAAGESSEAPKEAAP	33900
ASSSDEEEQEVDDMETDSSKKRSHDETKEEEVEEEEERPKKTVKVEKPKEKKT	29200
ASSSTPGAHQPTRRSAGAHRSEEHSVVLHLPPGTHRMKFIVDDRWRVSRELPT	29000
ASSTAAASAASSAAAAKGGNNNAGKGAAAAKGGAAAAKGGAAAGGAAAAKGGA	24400
ASSVRIIAIKYFLTIHRWLPIVFKRGFFSSLLNPVAQRQTELGLLILCMKLCC	48800
ASSYAVQHTRKKGRGGGGGEAGNKPANKAARSWDKNAELHGTQGKMHVTIAVT	85900
ASTAGPAAGGSVSAAPKRRGRPPKRKAEPEQGAEAQPAKKPRGRPRKSAVVEA	12000
ASTETPLPVPKRRGRPPKNNNAAGIVVFDGGEEAPAVKKRGRPKKVTEPVAST	23100
ASTKGRADVRGRSGKAAPQKGRGKARVGSKRAPHFRGGGIAFGPRPRDFSTEL	28300
ASVERCHRNIVPNGCAVFQAGGLVVVLVEVSRKSYLASLVPVIVNAILNEHQI	43500
ASVVQWLGFHPSKVEVRVRFTAVANKRSSRTSLLLLVVWSWRRQRWMLRWSSG	49300
ATAAAAVKSPRSKSKEPKKSLDAAAAVAATSPAPVAAEEPAAAAVVEEPAKPA	41400
ATAANEEGEEGEATPKKTPRKRAAKKQDVDGDASPKKKGRGKKVSDDETNVKS	< 6570
ATAARRPRADEGEEGLDEATDAAAAPAAAAENGEAAAAKPKKNRKSKAAKAAA	16300
ATADRDGEREAQEVVATTVVHCHGLFGKTYISIIRAFHVLIVKHSLARLPKKI	60700
ATCPSFFRSICSTYYDNFVFVWDAVAAFLVPYQRYTYYPIMGIARFNLYLLSW	52400
ATDCAVKALRALQILMDHPTFPYDACLDLWHRCWPWMHFVHTFWKYLPGFVTG	57200
ATEKEVKPKKAAAPKKAAAPKEKKEKVEKAEKAPKPKANAAKKVKKTASAPAV	20200
ATGAGSDANAGEDETFHKSGEATLSSQHRYKDAIDFRKIVLKLTDGVRWGLGI	37200
ATGLAWGVWGKKGAPRFRGSCAERFDTLSSTEWKGSRLVRLVARFDNTVRSVP	45600
ATHPDYIDPHNAMDYLSNDGGDSYNLCHFWSNFEIADMDFWRSDAYQAFFDFL	150000
ATIAPPQLELVTDPQLSMDSFLEMIRVFTVPGKCFFDALAADSTDASCTEESL	95400
ATIIFVFTASICGYNFNFDWVFSYKLVEFENTLGWTLFCLWLFDALLCVLFMT	52700
ATIMYLGLCITFLPFLVIYVIYNICSAFYVVLLGLGLLVYWLTRNSRLLKWAF	45800
ATKTKAATTKKAAVPKKAAAKPAPKKAVAAAKPKANAGRPRKTVAAAAGPAPA	42000
ATLHYISPYCPRFGRYHILRMLHCIGGLHVAANLWCYYWVWVYVLNEIILPQW	66400
ATLNLIFTIDLLNFSFWSELPEDERFCIEYRGKRWTGYWSLVAALQRALDEGV	39000

Sequence	transcriptional activation domain activity
ATNLFFTAAIFYFIFVVFGVILVLLYKALCELLIRSKKIGSESHLFHFIHNGW	44900
ATPAPAPGMSAAPAPAAEPVESTPKAESKPEPKPEPKAEPKAESKPAAKPAAA	19500
ATSVWLRVFFIAVSSIAVIPILNFWGLCKLWGFIFFFSCGNVYVGLLFTVVLF	62300
ATVNLVINFTEMTNLMRALLILYRLKERVLSMAKRLELAELRKSKSINVNLTL	60400
ATWKLVQIGYRRDESLFLYFFYFYLFLFCFNMCGSSFYLLLLCCHIHIVAHSV	71000
ATWWHVFGTRVFKPVPTYVGEFQTWLQAFIHLSWDWRLSTHMWFRYNFHMWTI	68900
AVAAAVAAIAAVAAEIKTVPAQAQEQEQEQEQEQAQVQVQVQAQAQPQQQQQA	< 6570
AVAALVGVGFGLSGYFLVCNVYPILSSADSKSLCLLVLVLLALSFKVLFFNYY	48300
AVAPASTPVATEASPAGAPDAKGKKKEKAAAGANADAAGGKKGKGGAQAAPAT	49500
AVDESSSEVKPAEPKADEGKPETASEENTAEASKPEAPKAEEANAEETAPAEG	51300
AVEARFVTPQDPVLIQDDGSRLPPVPLEEAYKLNVLRREVIERAGSVAKAIEG	63700
AVGLPNPHAHTLLQSLYYLRSITFSLLRLKMEQRLSLLIPSYLTIWKLDRKAL	68400
AVGRGEFAQPVLVPGGGVAIVAIGRARWIRDEEKNGERRYRVGVSWSADHRVV	40100
AVGYIWYIPFYHYNYSILRAGMMTNFFWASLCLVYSNIRPYSEIGIVYLLLCP	69800
AVIRKIRLLVCLAREQALRGYALEMVIHGLKPFIVDSYCSQDTIGVVQYLLHR	46700
AVKAEPESTAPSLVKEENTEDTKPAPSSTAPAEPSSGGMFRKRKAPAAGAGSR	39900
AVKKEPTPEEDEEEEEEEPAPKPKARGGRKAKASAAVDADAAQAKPKRGRAKK	30300
AVLEFYEQSTRLVASDALGRHVRIELPPRLLVYVVFFSPSVAVVSRLCSLLAC	35600
AVLSLLCSLLNTTLKYNPASWRVPYDHVVFKDPKQILVTYCLQLLLVLILYPI	37500
AVLWNPCICFKSPLVFRFCLSVLLAYLSLPFIPFVFLYYCFLFFVLWFIHSSY	31700
AVMFGQVCVILVAFCFTNQITFVGIRHGLWRSRINTIRLYIFLLRCWQILCGL	60900
AVPAEGAKPEETPAAAPAETTEAAKTEESKPEAPAASEPAKTEPAAPAAAPAA	< 6570
AVPCVVIVRNSLLIIILLPLELPLVMYVGSSNDCRGILLFYLFWFWSLRAIAV	68600
AVPGEVTEAEADSDVKTDDAAAAPATDEAAKPKKKKKKFARKPRRKAAAPAEG	17100
AVPGEVTEAEANGEAKAEGAAATTDEAAKPKKKKKSKSRKAKKTEDGTAPEEG	37900
AVPGEVTEAEANGETDKAEGAAPAEGDAEKPKKKKKKSAKKPKSTGAEGEAAE	24700
AVRAATSVLCKEMLRPGQSASLGLREAEEVECRMRALARLERVWVKTGASTNG	54900

Sequence	transcriptional activation domain activity
AVRLCRVTIKDITDPLPEGLRLSILLMSMDSLRLGRLYQVLDYMTIRSSLGKV	44600
AVRLLSTKKISMSQANIGQTYFAHYCLSLLRLARYALSTMIKMFGPVYGWWLF	64300
AVSAGLMSGFGSSSDEDEDEEQENEEDVNNEVSYPLHKLSHRFFFGHNAPSGA	15700
AVTCMTIFATISLKLNQQDMLTPWYTSLPLHRRLLHQWFCGLLHWMGFYLVWS	65900
AVVILGDLHPRGYNSNWFLMYYTGWLTFIFFITLLWALANLAWLRYTARVLPC	29300
AVVVTVWKLCDHPVMAWILGLIRCLTKKLKEVRQCKEELKQFFRDVVCKIEIA	39000
AVWGTGYGKYFVLVLCLFAGINITSCWVLIKYLGGLTWCTLFFKNRLLWINFV	60400
AVWPLSERSKFHNIISVDLSDLGDVINPDVGTITELVCFDESIADLYPVGLDS	122000
AWAVQTKVYLNYLWHTTNKFTTGFKVIYIQCHPDFVTWEQMKIMAMFLCCLCF	55800
AWCHLSVVGRASNLVVYLLIRARKLQLDLGLGFYQRSLLMLCEKLIVVDIFSL	63400
AWKRVTALLGPVVRLKADIVEIFERVMIIYFRSLDLEEKPITAGILGTVNKWN	48300
AWLIHCILLFPWSSKLFPSWCGHMTSCYEFYVLGAISVCNCAVVFVYWLILLV	56600
AWPLHLTLGKIPKSIRYQDYHRACRVLAYFPIIHVKGGIIRPAWWWSHCKKLI	36300
AWVLSLFLSFFGIGLVLGSGIWDLGFGLVFLFLVFSFFWGWFWVVLCVVYVDR	33800
AWWIGLSGGLYGCITLMPIFFHDSPYYAPLSFTAWFLYMESFWYLPFLDLCYL	46000
AYANDKESTREKFILVVWIGPQCKVMRKAKVSVHAADVKTTLRVYSIEVAARE	35700
AYAVMVVIQSLFLCLFGMAFQFSFFLNANFVVVYSIFVLYGWAMICFALFLST	46800
AYFAQDSEEELMSPTQSITSNLASEENTRCTTKDLMGTVSIFMLPMVEECYNI	75100
AYHSAKHVIVPNDGKLLAMTDPLISDLDEDGQKGLLIISRGTALLLLGVYIAY	47300
AYLTFCIYLCFWSYLNLRLAGLFFFSLFIILFPPRVSWLHYFSFLFYSGVFCF	51000
AYMREMCVCLRDLFEALGCNKLTTLRIMLYNDAYCLGQSPTFRIRYLMSQLEP	49600
AYNALIFALVVCICTFGCCAYIFVSSLFIHKLYNKFIILAAHIWMIIFWLVDL	62400
AYNALQILSWTCRLICSSVLSLHWFRPGHESILQLYDSITFFLTMFFIELLSH	49100
AYNLILIIRWCLFIITIYYCYTLVLYHHYKVNFKQLIRKSMSPIKNNNLIHQF	65300
AYPTAAAVAPSTPKGKQRDVADELADLSVSKSSGSASKAKAKGSSPAAAKAAA	14900
